Test results reported in paper PMC4860839, “Structures of the APC–ARM domain in complexes with discrete Amer1/WTX fragments reveal that it uses a consensus mode to recognize its binding partners” (Cell Discovery, 2015).

B1: pBTM-APC–ARM (residues 308–789), two-hybrid bait [human] / Amer1-A2 (murine, residues 388–551), two-hybrid prey [murine] (parent complex)
chain 1: LGTKVEMVYSLLSMLGTHDKDDMSRTLLAMSSSQDSCISMRQSGCLPLLIQLLHGNDKDSVLLGNSRGSKEARARASAALHNIIHSQPDDKRGRREIRVLHLLEQIRAYCETCWEWQEAHEPGMDQDKNPMPAPVEHQICPAVCVLMKLSFDEEHRHAMNELGGLQAIAELLQVDCEMYGLTNDHYSITLRRYAGMALTNLTFGDVANKATLCSMKGCMRALVAQLKSESEDLQQVIASVLRNLSWRADVNSKKTLREVGSVKALMECALEVKKESTLKSVLSALWNLSAHCTENKADICAVDGALAFLVGTLTYRSQTNTLAIIESGGGILRNVSSLIATNEDHRQILRENNCLQTLLQHLKSHSLTIVSNACGTLWNLSARNPKDQEALWDMGAVSMLKNLIHSKHKMIAMGSAAALRNLMANRPAKYKDANIMSPGSSLPSLHVRKQKALEAELDAQHLSETFDNIDNLSPKASHRSKQ
chain 2: EEEEEEEEEEEEEEEEEEEEEELLEDEEEVKDGEENDDLEYLWASAQIYPRFNMNLGYHTAISPSHQGYMLLDPVQSYPNLGLGELLTPQSDQQESAPNSDEGYYDSTTPGFEDDSGEALGLAHRDCLPRDSYSGDALYEFYEPDDSLEHSPPGDDCLYDLRGR
B2: Amer1-A1 (human, residues 280–369), two-hybrid prey [human] / pBTM-APC–ARM (residues 308–789), two-hybrid bait [human] (parent complex)
chain 1: SLEEPHSPETGEKVVAGEVNPPNGPVGDPLSLLFGDVTSLKSFDSLTGCGDIIAEQDMDSMTDSMASGGQRANRDGTKRSSCLVTYQGGG
chain 2: B1 chain 1
B3: Amer1-A4 (human, residues 337–455), two-hybrid prey [human] / pBTM-APC–ARM (residues 308–789), two-hybrid bait [human] (parent complex)
chain 1: MDSMTDSMASGGQRANRDGTKRSSCLVTYQGGGEEMALPDDDDEEEEEEEEVELEEEEEEVKEEEEDDDLEYLWETAQMYPRPNMNLGYHPTTSPGHHGYMLLDPVRSYPGLAPGELLT
chain 2: B1 chain 1
B4: Amer1-A2 (human, residues 380–531), two-hybrid prey [human] / pBTM-APC–ARM (residues 308–789), two-hybrid bait [human] (parent complex)
chain 1: EEEEEEEEVELEEEEEEVKEEEEDDDLEYLWETAQMYPRPNMNLGYHPTTSPGHHGYMLLDPVRSYPGLAPGELLTPQSDQQESAPNSDEGYYDSTTPGFEDDSGEALGLVRRDCLPRDSYSGDALYEFYEPDDSLENSPPGDDCLYDLHGR
chain 2: B1 chain 1

Variants of: B1
Assay: yeast two-hybrid assay (relative β-galactosidase reporter activity); parent: 100

Row | Variant | percent of parent [%]
1 | chain 1 M410K | 87.8
2 | chain 1 K209E | 0.27
3 | chain 1 N243K | 0.12
4 | chain 1 N200K | 0.33
5 | chain 1 R242E | 0.06
6 | chain 1 R420E | 75.2

Variants of: B2
Assay: as above

Row | Variant | percent of parent [%]
7 | chain 1 D51K | 0
8 | chain 1 T47R | 65.2
9 | chain 1 D44K | 31.9

Variants of: B3
Assay: as above

Row | Variant | percent of parent [%]
10 | chain 1 E34K | 0.85

Variants of: B4
Assay: as above

Row | Variant | percent of parent [%]
11 | chain 1 D119K | 0.28
12 | chain 1 D124K | 0.17
